Data set [1] deals with the molecule itself. Kind of data set: SEC; protein that was monomeric at low pH (pH 3.0) neutralised to pH 7.5 and run again on SEC.
Data set [2] deals with the molecule itself. In words: SEC; analytical SEC, Superdex S75 HR 10/300, room temperature, 0.5 ml/min, 20 mM HEPES, 1 M NaCl, pH 7.5; 100-150 µg protein loaded; self-association.

B1: Gremlin2 (natural protein)
chain: RKNRPAGAIPSPYKDGSSNNSERWHHQIKEVLASSQEALVVTERKYLKSDWCKTQPLRQTVSEEGCRSRTILNRFCYGQCNSFYIPRHVKKEEDSFQSCAFCKPQRVTSVIVELECPGLDPPFRIKKIQKVKHCRCMSVNLSDSDKQ
notes: Gremlin2 (Grem2); also called Grem2
In the case of B1, the “stoichiometry N” value in data set [1] was 2.

B2: human SOSTDC1 (Sclerostin domain containing protein 1) (natural protein, UniProt Q6X4U4 24-206, looked up)
chain: FKNDATEILYSHVVKPVPAHPSSNSTLNQARNGGRHFSNTGLDRNTRVQVGCRELRSTKYISDGQCTSISPLKELVCAGECLPLPVLPNWIGGGYGTKYWSRRSSQEWRCVNDKTRTQRIQLQCQDGSTRTYKITVVTACKCKRYTRQHNESSHNFESMSPAKPVQHHRERKRASKSSKHSMS
modifications: native glycosylation
notes: signal peptide in the construct; SOSTDC1, human, full-length gene made by gene synthesis and codon optimised (GenScript), in pcDNA4 (pCDNA4-hSOSTDC1-PP-Myc-His); secreted into conditioned medium; after cleavage the residues LEVLFQ probably stay on the C-terminus (surmised); The secreted protein probably lacks its signal peptide (surmised); also called hSOSTDC1; Wise; source: Expi293F, transiently …
For B2, in data set [2], the “stoichiometry N” value was determined as 2.

B3: chicken SOSTDC1 (Sclerostin domain containing protein 1), residues 23-206 (natural protein, UniProt Q6VYA3 23-206, looked up)
chain: AFKNDATEILYSHVVKPAPASPSSNSTLNQARNGGRHYAGTGSDRNNRVQVGCRELRSTKYISDGQCTSINPLKELVCAGECLPLPLLPNWIGGGYGTKYWSRRSSQEWRCVNDKTRTQRIQLQCQDGSIRTYKITVVTACKCKRYTRQHNESSHNFEGTSQAKPVQHHKERKRASKSSKHSTS
notes: SOSTDC1, chicken, amino acid residues 23-206, cloned into pET21a from pCS2-Flag-cSOSTDC1; 20.7 kDa; The vector is pET21a; also called cSOSTDC1; Wise
Turning to B3, the “stoichiometry N” value in data set [2] amounted to 2.
